Assay results from patent US9738884B2, “Therapeutic agent for epithelial and endothelial injury” (NIHON UNIVERSITY, priority 2012, dated 2017).

System: A431 cells
Test: Adhesion of A431 cells to the substrate, cells removed when the culture dish was shaken (Example 2)
Assay type: cell-based
Details: 1 pmol/ml, 96-well culture dish
Method: FIG. 2 is a graph showing the results of Example 2 of the present application. The numerical value of the vertical axis indicates the number of cells removed from the bottom surface when a culture dish was shaken.
A portion in the entire-length F9 (F9(47-471)), which has an activity of inducing spread of cells on a substrate, was determined using an ability to adhere to the substrate as an indicator. […] Thereafter, an F9 portion having an action to inhibit the aforementioned inhibitory action was examined under conditions in which a culture was performed at 37° C. for 24 hours and the culture dish was then shaken on a shaker. It is to be noted that F9(47-191) is a peptide consisting of amino acids at positions 47 to 191 in the amino acid sequence shown in SEQ ID NO: 8, and that F9(192-202) is a peptide consisting of amino acids at positions 192 to 202 in the amino acid sequence shown in SEQ ID NO: 8. […] Each of the numerical values (on the vertical axis) in the graph of FIG. 2 is indicated as a mean±SD (**: P<0.01). In addition, in FIG. 2, the term “47-191” indicates the conditions in which F9(47-191) was added, and the terms “47-471,” “192-236,” “192-216,” and “192-202” indicate the results obtained in the case of adding F9(47-471), F9(192-236), F9(192-216), and F9(192-202), respectively.

B1: F9(47-191): peptide consisting of amino acids at positions 47 to 191 of SEQ ID NO: 8 (mouse F9) (protein, listed as Mus musculus)
chain: YNSGKLEEFVRGNLERECIEERCSFEEAREVFENTEKTTEFWKQYVDGDQCESNPCLNGGICKDDISSYECWCQVGFEGRNCELDATCNIKNGRCKQFCKNSPDNKVICSCTEGYQLAEDQKSCEPTVPFPCGRASISYSSKKIT
For B1, the “action on adhesion between the cells and the substrate” value was “action to inhibit adhesion between the cells and the substrate”.
